Laboratory results reported in patent publication CN111333730A (NANJING RONGJIEKANG BIOTECHNOLOGY CO LTD, dated 2020).

Molecular target: T1, 人源EpCAM重组胞外结构域蛋白 (human, UniProt P16422 24-265)
T1 construct: range 24-265; Made in-house in 293F cells from pcDNA3.4; coated on ELISA plates; also called EpCAM重组蛋白; 人源重组EpCAM
T1 sequence: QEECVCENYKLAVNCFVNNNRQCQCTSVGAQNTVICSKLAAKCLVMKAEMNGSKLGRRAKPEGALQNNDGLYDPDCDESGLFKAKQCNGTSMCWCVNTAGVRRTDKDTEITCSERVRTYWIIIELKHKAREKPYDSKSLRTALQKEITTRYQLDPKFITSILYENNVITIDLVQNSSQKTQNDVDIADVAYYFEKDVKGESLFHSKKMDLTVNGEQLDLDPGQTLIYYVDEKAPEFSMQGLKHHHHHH
Assay: ELISA, coated human recombinant EpCAM, anti-HA-HRP detection

B1: 单域抗体 4C9 (VHH)
VHH: ESGGGSVQAGGSLRLSCAASEYTWSTTCMGWFRQAPGKEREGVAALYTRRGSTYYADSVKGRFTISRDNAENTVYLQMNSLKPEDTAMYYCASGPSTDFSCDYRRSNGYNYWGQGTQVTVSS
- EC50: 1.96 nM
